# Measurements published in US20250101446A1, “METHOD FOR GENETIC TRANSFORMATION OF PLANT ORGANELLE GENOME AND USES THEREOF” (Solar Grants Biotechnology Inc., priority 2022, published 2025).
# B1: plant-produced recombinant human IL-38, mature form C2-W152 with C-terminal 7xHIS tag (ligand)
# chain: CSLPMARYYIIKYADQKALYTRDGQLLVGDPVADNCCAEKICILPNRGLARTKVPIFLGIQGGSRCLACVETEEGPSLQLEDVNIEELYKGGEEATRFTFFQSSSGSAFRLEAAAWPGWFLCGPAEPQQPVQLTKESEPSARTKFYFEQSWHHHHHHH
# notes: range 2-152; also called rhIL-38; plantakine IL-38
# Test system: PHA-stimulated PBMCs
# Assay: Cytokine secretion from PHA-stimulated PBMCs treated with plantakines (multiplex Luminex)
# Assay type: cell-based, human
# Procedure: The bioactivity of our plantakines IL-37b and IL-38 was assessed by monitoring the secretion of 11 cytokines, generally regarded as inflammatory markers, from PBMCs stimulated with an IA. Freshly isolated human PBMCs were subjected to various treatments-combinations of the IAs with the plantakines at different concentrations. Two different model IAs were used, either the bacterial lipopolysaccharides (LPS) or a lectin from Phaseolus vulgaris (phytohaemagglutinin, PHA); each of the IAs was applied onto cells separately, each IA was applied at two concentrations: LPS at 150 and 300 μg/mL; PHA at 5 and 10 μg/mL. Each IA at each concentration was applied in combination with one of the two plantakines, each of them at three different concentrations: 1, 10 and 100 ng/ml of the monomeric forms present in the purified extracts. Also included were treatments comprised of either IA at their lower concentrations, in combination with both plantakines at 10 ng/ml concentration in order to assess possible synergistic effects. Cells with only IAs applied represented the reference (positive controls for each concentration), cells without any treatment represented the basal level (negative control). The levels of eleven different pro-inflammatory cytokines secreted into the medium from the PBMCs-GM-SCF, IFNγ. TNFα, IL-1α, IL-1β, IL-6, IL-8, IL-22, IL12, IL-17 and IL-10 were compared between the treatments and the controls. We applied Generalized Estimating Equation (GEE) model for the statistical data analysis. This statistical approach allows for nested observations and was used to test the effects of the plantakines IL-37b and IL-38 and their dosage in the context of IA-stimulated PBMCs inflammatory responses.
# After isolation, the PBMCs from each donor separately were counted, plated in equal numbers per well and stimulated for 24 h with the applied treatments. Control wells on the plate contained media only (as basal level controls), and LPS and PHA (as positive controls at their corresponding concentrations). After the 24 h treatments stimulation the PBMCs' culture supernatants were used in the multiplex Luminex platform-assisted analysis of the concentrations of the 11 secreted pro-inflammatory cytokines.
# The whole blood from 5 random human donors was collected in ACD Vacutainer tubes and immediately processed for isolation of PBMCs by gradient density centrifugation using Lympholyte. […] 5% CO2 and >80% humidity. PBMCs were treated with one of two IAs at 2 concentrations each (LPS at 150 and 300 μg/mL; PHA at 5 and 10 μg/mL) in combination with two test items (plant-produced IL-37b or IL-38) at three concentrations each (1, 10 and 100 ng/ml), based on the monomeric form amounts estimated with densitometry (ImageJ). Each treatment was tested in triplicates. Control wells contained media only (negative control, basal level of detection) and the examined IAs at both tested concentrations as the positive controls. The PBMCs were incubated for 24 hours after the stimulation for analysis of the levels of the secreted cytokines that were determined in the culture supernatant using a multiplex immunoassay (MAGPix®, Luminex), analytes were selected from the Milliplex panel HCYTOMAG-60K, sensitivity range of […]. All parameters of the Milliplex panel cytokines analysis using Luminex platform were validated (Millipore-Sigma).
# Non-linear logarithm transformation was performed to address non-normality of distribution of Luminex-derived numeric data. Generalized Estimating Equation (GEE) method was used in the analysis of nested (correlated) structure of the data. Secreted inflammatory cytokine values were used as dependent variables and test item (plantakines) with dosage as independent predictors (factors). Separate analyses were conducted for each of the 11 monitored cytokines and each inflammatory agent/concentration combination. […]
molecule,measurement,setting,value
B1,secreted GM-CSF level modulation vs positive control,"1 ng/mL, PHA 5 μg/mL","18.0%, p = 0.403"
same,secreted IFNγ level modulation vs positive control,"1 ng/mL, PHA 5 μg/mL","−35.6%, p = 0.137"
same,secreted IL-1α level modulation vs positive control,"1 ng/mL, PHA 5 μg/mL","−9.5%, p = 0.480"
same,secreted IL-1β level modulation vs positive control,"1 ng/mL, PHA 5 μg/mL","−2.0%, p = 0.888"
same,secreted IL-6 level modulation vs positive control,"1 ng/mL, PHA 5 μg/mL","−5.8%, p = 0.798"
same,secreted IL-8 level modulation vs positive control,"1 ng/mL, PHA 5 μg/mL","−11.3%, p = 0.736"
same,secreted IL-10 level modulation vs positive control,"1 ng/mL, PHA 5 μg/mL","17.4%, p = 0.244"
same,secreted IL-12 level modulation vs positive control,"1 ng/mL, PHA 5 μg/mL","63.3%, p = 0.020"
same,secreted IL-17 level modulation vs positive control,"1 ng/mL, PHA 5 μg/mL","4.1%, p = 0.807"
same,secreted IL-22 level modulation vs positive control,"1 ng/mL, PHA 5 μg/mL","8.1%, p = 0.631"
same,secreted TNFα level modulation vs positive control,"1 ng/mL, PHA 5 μg/mL","46.2%, p = 0.173"
same,secreted GM-CSF level modulation vs positive control,"1 ng/mL, PHA 10 μg/mL","1.5%, p = 0.881"
same,secreted IFNγ level modulation vs positive control,"1 ng/mL, PHA 10 μg/mL","−36.9%, p = 0.164"
same,secreted IL-1α level modulation vs positive control,"1 ng/mL, PHA 10 μg/mL","−5.8%, p = 0.469"
same,secreted IL-1β level modulation vs positive control,"1 ng/mL, PHA 10 μg/mL","0.0%, p = 1.000"
same,secreted IL-6 level modulation vs positive control,"1 ng/mL, PHA 10 μg/mL","−2.0%, p = 0.898"
same,secreted IL-8 level modulation vs positive control,"1 ng/mL, PHA 10 μg/mL","−5.8%, p = 0.823"
same,secreted IL-10 level modulation vs positive control,"1 ng/mL, PHA 10 μg/mL","22.1%, p = 0.033"
same,secreted IL-12 level modulation vs positive control,"1 ng/mL, PHA 10 μg/mL","22.2%, p = 0.476"
same,secreted IL-17 level modulation vs positive control,"1 ng/mL, PHA 10 μg/mL","22.1%, p = 0.166"
same,secreted IL-22 level modulation vs positive control,"1 ng/mL, PHA 10 μg/mL","86.8%, p < 0.001"
same,secreted TNFα level modulation vs positive control,"1 ng/mL, PHA 10 μg/mL","55.3%, p = 0.411"
same,secreted IFNγ level modulation vs positive control,"10 ng/mL, PHA 5 μg/mL","−53.2%, p = 0.032"
same,secreted IL-1α level modulation vs positive control,"10 ng/mL, PHA 5 μg/mL","4.1%, p = 0.690"
same,secreted IL-1β level modulation vs positive control,"10 ng/mL, PHA 5 μg/mL","4.1%, p = 0.801"
same,secreted IL-6 level modulation vs positive control,"10 ng/mL, PHA 5 μg/mL","10.5%, p = 0.538"
same,secreted IL-8 level modulation vs positive control,"10 ng/mL, PHA 5 μg/mL","8.3%, p = 0.772"
same,secreted IL-10 level modulation vs positive control,"10 ng/mL, PHA 5 μg/mL","15.0%, p = 0.224"
same,secreted IL-12 level modulation vs positive control,"10 ng/mL, PHA 5 μg/mL","107.0%, p = 0.079"
same,secreted IL-17 level modulation vs positive control,"10 ng/mL, PHA 5 μg/mL","24.6%, p = 0.215"
same,secreted IL-22 level modulation vs positive control,"10 ng/mL, PHA 5 μg/mL","55.8%, p < 0.001"
same,secreted TNFα level modulation vs positive control,"10 ng/mL, PHA 5 μg/mL","49.2%, p = 0,123"
same,secreted GM-CSF level modulation vs positive control,"10 ng/mL, PHA 10 μg/mL","42.6%, p = 0.016"
same,secreted IFNγ level modulation vs positive control,"10 ng/mL, PHA 10 μg/mL","−53.2%, p = 0.046"
same,secreted IL-1α level modulation vs positive control,"10 ng/mL, PHA 10 μg/mL","−2.0%, p = 0.893"
same,secreted IL-1β level modulation vs positive control,"10 ng/mL, PHA 10 μg/mL","4.1%, p = 0.761"
same,secreted IL-6 level modulation vs positive control,"10 ng/mL, PHA 10 μg/mL","6.2%, p = 0.722"
same,secreted IL-8 level modulation vs positive control,"10 ng/mL, PHA 10 μg/mL","−3.9%, p = 0.886"
same,secreted IL-10 level modulation vs positive control,"10 ng/mL, PHA 10 μg/mL","32.3%, p < 0.001"
same,secreted IL-12 level modulation vs positive control,"10 ng/mL, PHA 10 μg/mL","8.8%, p = 0.750"
same,secreted IL-17 level modulation vs positive control,"10 ng/mL, PHA 10 μg/mL","19.7%, p = 0.188"
same,secreted IL-22 level modulation vs positive control,"10 ng/mL, PHA 10 μg/mL","61.7%, p = 0.061"
same,secreted TNFα level modulation vs positive control,"10 ng/mL, PHA 10 μg/mL","166.4%, p = 0.105"
same,secreted IFNγ level modulation vs positive control,"100 ng/mL, PHA 5 μg/mL","6.2%, p = 0.856"
same,secreted IL-1α level modulation vs positive control,"100 ng/mL, PHA 5 μg/mL","46.2%, p = 0.015"
same,secreted IL-1β level modulation vs positive control,"100 ng/mL, PHA 5 μg/mL","43.3%, p = 0.019"
same,secreted IL-6 level modulation vs positive control,"100 ng/mL, PHA 5 μg/mL","15.0%, p = 0.432"
same,secreted IL-8 level modulation vs positive control,"100 ng/mL, PHA 5 μg/mL","10.5%, p = 0.731"
same,secreted IL-10 level modulation vs positive control,"100 ng/mL, PHA 5 μg/mL","15.0%, p = 0.275"
same,secreted IL-12 level modulation vs positive control,"100 ng/mL, PHA 5 μg/mL","123.0%, p < 0.001"
same,secreted IL-17 level modulation vs positive control,"100 ng/mL, PHA 5 μg/mL","29.7%, p = 0.107"
same,secreted IL-22 level modulation vs positive control,"100 ng/mL, PHA 5 μg/mL","15.3%, p = 0.347"
same,secreted TNFα level modulation vs positive control,"100 ng/mL, PHA 5 μg/mL","85.9%, p = 0.026"
same,secreted IFNγ level modulation vs positive control,"100 ng/mL, PHA 10 μg/mL","6.2%, p = 0.852"
same,secreted IL-1α level modulation vs positive control,"100 ng/mL, PHA 10 μg/mL","40.5%, p < 0.001"
same,secreted IL-1β level modulation vs positive control,"100 ng/mL, PHA 10 μg/mL","46.2%, p = 0.001"
same,secreted IL-6 level modulation vs positive control,"100 ng/mL, PHA 10 μg/mL","4.1%, p = 0.810"
same,secreted IL-8 level modulation vs positive control,"100 ng/mL, PHA 10 μg/mL","−2.0%, p = 0.943"
same,secreted IL-10 level modulation vs positive control,"100 ng/mL, PHA 10 μg/mL","22.1%, p = 0.033"
same,secreted IL-12 level modulation vs positive control,"100 ng/mL, PHA 10 μg/mL","74.3%, p = 0.002"
same,secreted IL-17 level modulation vs positive control,"100 ng/mL, PHA 10 μg/mL","55.3%, p = 0.003"
same,secreted IL-22 level modulation vs positive control,"100 ng/mL, PHA 10 μg/mL","50.0%, p = 0.020"
same,secreted TNFα level modulation vs positive control,"100 ng/mL, PHA 10 μg/mL","252.5%, p = 0.017"
same,Decreased secretion: number of treatments with statistically significant modulation,PHA 5 μg/mL,1
same,Increased secretion: number of treatments with statistically significant modulation,PHA 5 μg/mL,7
same,Decreased secretion: number of treatments with statistically significant modulation,PHA 10 μg/mL,1
same,Increased secretion: number of treatments with statistically significant modulation,PHA 10 μg/mL,12
